One assay addresses T1, OC43 spike protein (human coronavirus OC43, UniProt P36334 14-1278).
T1 sequence: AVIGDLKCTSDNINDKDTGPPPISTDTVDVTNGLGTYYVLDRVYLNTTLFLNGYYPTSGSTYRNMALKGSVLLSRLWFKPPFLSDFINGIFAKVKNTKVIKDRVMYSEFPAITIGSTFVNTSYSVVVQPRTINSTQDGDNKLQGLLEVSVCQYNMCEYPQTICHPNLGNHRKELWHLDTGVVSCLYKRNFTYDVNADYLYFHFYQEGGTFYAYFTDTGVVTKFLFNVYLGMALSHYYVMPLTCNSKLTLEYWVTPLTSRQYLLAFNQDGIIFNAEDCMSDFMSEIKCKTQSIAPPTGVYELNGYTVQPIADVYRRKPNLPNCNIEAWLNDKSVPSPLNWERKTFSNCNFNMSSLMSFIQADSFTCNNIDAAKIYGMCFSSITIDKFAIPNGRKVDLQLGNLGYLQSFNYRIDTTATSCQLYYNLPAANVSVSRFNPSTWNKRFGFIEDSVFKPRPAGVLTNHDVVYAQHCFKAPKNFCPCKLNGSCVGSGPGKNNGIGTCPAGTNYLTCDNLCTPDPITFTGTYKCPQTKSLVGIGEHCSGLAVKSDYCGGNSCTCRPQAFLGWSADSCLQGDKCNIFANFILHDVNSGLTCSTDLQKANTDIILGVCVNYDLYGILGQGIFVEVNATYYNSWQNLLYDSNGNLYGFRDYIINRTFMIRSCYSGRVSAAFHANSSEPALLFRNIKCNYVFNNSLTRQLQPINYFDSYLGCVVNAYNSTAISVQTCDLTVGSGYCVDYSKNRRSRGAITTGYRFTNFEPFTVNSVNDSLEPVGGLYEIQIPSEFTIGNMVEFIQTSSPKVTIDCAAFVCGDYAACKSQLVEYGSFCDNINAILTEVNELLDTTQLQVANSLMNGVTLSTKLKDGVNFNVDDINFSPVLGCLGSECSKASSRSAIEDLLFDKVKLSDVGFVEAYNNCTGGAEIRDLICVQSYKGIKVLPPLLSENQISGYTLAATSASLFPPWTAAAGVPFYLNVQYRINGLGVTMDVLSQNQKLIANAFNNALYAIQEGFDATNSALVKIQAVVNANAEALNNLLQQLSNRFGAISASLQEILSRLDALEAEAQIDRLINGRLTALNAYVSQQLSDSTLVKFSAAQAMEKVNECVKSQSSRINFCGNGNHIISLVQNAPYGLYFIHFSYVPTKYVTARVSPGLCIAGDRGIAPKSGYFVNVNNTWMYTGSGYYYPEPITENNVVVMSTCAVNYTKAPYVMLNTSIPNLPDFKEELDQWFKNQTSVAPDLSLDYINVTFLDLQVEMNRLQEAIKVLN
As to the kind of experiment: ELISA. A general note: In an ELISA, binding on a coated surface is turned into a signal by an enzyme label.

Assay [1] deals with T2, MERS spike protein on recombinant CHO K1 cells (MERS-CoV, UniProt K9N5Q8 18-1353).
T2 sequence: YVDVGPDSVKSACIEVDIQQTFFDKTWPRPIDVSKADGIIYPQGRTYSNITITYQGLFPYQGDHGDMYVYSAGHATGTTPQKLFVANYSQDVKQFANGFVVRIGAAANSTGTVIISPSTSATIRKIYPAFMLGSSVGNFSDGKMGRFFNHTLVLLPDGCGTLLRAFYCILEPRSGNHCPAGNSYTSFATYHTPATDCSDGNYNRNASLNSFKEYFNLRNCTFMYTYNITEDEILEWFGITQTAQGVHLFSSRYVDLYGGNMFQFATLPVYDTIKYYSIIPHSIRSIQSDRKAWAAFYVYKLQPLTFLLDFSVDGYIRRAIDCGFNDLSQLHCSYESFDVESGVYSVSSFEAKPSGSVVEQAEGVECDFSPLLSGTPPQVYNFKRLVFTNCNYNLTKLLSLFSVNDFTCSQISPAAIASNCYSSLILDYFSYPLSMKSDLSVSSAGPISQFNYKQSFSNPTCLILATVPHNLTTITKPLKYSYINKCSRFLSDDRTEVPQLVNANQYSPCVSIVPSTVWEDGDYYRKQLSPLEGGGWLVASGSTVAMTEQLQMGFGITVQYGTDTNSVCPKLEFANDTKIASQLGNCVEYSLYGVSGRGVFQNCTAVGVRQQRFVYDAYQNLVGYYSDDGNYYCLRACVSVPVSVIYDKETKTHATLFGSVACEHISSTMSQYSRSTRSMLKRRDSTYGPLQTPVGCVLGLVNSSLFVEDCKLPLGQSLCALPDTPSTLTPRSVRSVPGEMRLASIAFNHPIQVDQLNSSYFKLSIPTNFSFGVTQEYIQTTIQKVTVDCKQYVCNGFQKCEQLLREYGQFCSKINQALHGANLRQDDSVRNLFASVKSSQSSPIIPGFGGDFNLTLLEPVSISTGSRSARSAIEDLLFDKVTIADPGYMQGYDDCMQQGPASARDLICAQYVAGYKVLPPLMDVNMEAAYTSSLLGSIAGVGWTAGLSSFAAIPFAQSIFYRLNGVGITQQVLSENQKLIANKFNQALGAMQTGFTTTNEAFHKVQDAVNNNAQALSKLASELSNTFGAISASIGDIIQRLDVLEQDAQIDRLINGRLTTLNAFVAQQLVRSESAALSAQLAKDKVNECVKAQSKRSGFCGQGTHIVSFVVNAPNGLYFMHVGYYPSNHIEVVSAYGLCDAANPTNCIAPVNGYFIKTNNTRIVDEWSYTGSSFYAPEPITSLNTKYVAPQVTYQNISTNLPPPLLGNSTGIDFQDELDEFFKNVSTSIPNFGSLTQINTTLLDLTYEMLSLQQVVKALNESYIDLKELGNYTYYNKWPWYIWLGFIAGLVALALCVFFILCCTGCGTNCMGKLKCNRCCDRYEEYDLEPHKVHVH
In words: FACS on CHO K1 cells.

Assay [2] has as its target T3, SARS-CoV-2 spike protein on recombinant CHO K1 cells (SARS-CoV-2, UniProt P0DTC2 14-1273).
T3 construct: whole, on cells
As to the kind of experiment: FACS on CHO K1 cells.

B1: 6A1 VHH-Fc (Fc fusion)
chain: QVQLVESGGGLVQAGGSLRLSCTASGNIFSVNVMGWHRQAPGKRRELVAALTNDGRRNYADSVKGRFTISRDNAKNTIYLEMNSLKPEDTAVYYCGTGTLESGFNSWGQGLQVTVSS
For orientation: EC50 means the concentration that produces a half-maximal response. Consider B1, for which the values for the EC50 (with OC43 spike protein; in assay [1]; in assay [2]) were 0.08 nM, 0.13 nM and 0.14 nM, respectively.

(Values after patent US20250382355A1 (Merck Sharp & Dohme, published 2025).)
